Reference: patent US7910100B2, “Antibodies directed to the mammalian EAG1 ion channel protein” (Max-Planck-Gesellschaft zur Forderung der Wissen, priority 2004, dated 2011)

Legend:
[1] = system: Eag1; experiment: BIAcore binding analysis on Eag1 C-terminus and H5 region; details: 10 μg/ml antibody, flow rate 20 μl/min; chips coated with Eag1 C-terminus (aa 694 to 962) or H5 region (aa 374 to 452)
Protocol: (§1) In order to analyse cross-reactivity of anti-Eag1 antibodies of the invention with the most homologous Eag family member Eag2 a BIAcore™ binding analysis was performed. BIAcore chips were coated with Eag1 C-terminus (amino acids 694 to 962), the H5 region (amino acids 374 to 452) or Eag2 (the equivalent regions fused in a single construct). The interaction with anti-Eag1 antibodies ImAb1 and ImAb3 were analysed using 10 μg/ml antibody at a flow rate of 20 μl/min.

[2] = system: Eag2; experiment: BIAcore cross-reactivity with Eag family member Eag2; format: binding; details: 10 μg/ml antibody, flow rate 20 μl/min; chip coated with Eag2 equivalent regions
Protocol: as §1

[3] = biological target: T1, Eag1 current (Homo sapiens, UniProt O95259); experiment: Two-electrode voltage clamp in Eag1-expressing oocytes; format: cell-based; details: 10% hybridoma supernatant
T1 construct: expressed in transfected cells
T1 sequence (O95259 1-962 isoform O95259-2): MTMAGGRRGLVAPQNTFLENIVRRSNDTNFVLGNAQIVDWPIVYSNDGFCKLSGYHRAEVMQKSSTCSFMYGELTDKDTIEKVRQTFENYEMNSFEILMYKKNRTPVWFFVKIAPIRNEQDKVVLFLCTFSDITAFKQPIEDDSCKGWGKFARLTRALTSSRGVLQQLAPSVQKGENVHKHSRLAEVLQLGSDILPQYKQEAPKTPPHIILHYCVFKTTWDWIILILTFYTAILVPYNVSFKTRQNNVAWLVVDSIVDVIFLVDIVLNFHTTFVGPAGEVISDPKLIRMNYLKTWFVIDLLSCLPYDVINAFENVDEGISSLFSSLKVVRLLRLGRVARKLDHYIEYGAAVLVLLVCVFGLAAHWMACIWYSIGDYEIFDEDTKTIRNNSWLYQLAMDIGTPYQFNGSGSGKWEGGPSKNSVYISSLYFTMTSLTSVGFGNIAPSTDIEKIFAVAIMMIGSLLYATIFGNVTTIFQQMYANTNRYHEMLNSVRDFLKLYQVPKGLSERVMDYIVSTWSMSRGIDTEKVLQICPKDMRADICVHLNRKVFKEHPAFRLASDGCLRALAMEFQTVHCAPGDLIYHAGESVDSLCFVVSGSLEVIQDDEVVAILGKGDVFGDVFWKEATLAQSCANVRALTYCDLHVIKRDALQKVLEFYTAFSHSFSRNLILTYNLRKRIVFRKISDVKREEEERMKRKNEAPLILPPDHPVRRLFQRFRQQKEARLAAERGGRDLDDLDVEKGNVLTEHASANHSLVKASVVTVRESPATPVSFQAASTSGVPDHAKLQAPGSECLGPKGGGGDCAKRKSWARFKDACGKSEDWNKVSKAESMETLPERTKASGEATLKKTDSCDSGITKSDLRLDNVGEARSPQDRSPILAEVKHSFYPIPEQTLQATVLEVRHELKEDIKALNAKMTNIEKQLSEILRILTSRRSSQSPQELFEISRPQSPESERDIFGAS
Protocol: In order to analyse the functional properties of anti-Eag1 antibodies of the invention were analysed by a two-electrode voltage clamp experiment. Therefore, Oocyte preparation and electrophysiological recordings were performed as described in Stühmer, W., 1992, Methods in Enzymology 207. Oocytes were injected with synthetic mRNA coding for Eag1, incubated for 48 h and recorded in NFR (115 mM NaCl, 1.8 CaCl2, 2.5 KCl, 10 Hepes pH 7.2) until stable traces were recorded. Then, 10% of the corresponding hybridoma supernatant producing ImAb1 or ImAb3 was added to the chamber and current amplitudes were further monitored.

[4] = system: IPC-298 melanoma cells; experiment: IPC-298 cell proliferation assay (AlamarBlue); format: cell-based, human; details: 5 μg/ml antibody, 7 days, pre-incubation with 40 mM KCl
Protocol: In vitro experiments were conducted in order to determine the ability of the antibodies of the invention to inhibit cancer cell proliferation. 1000 IPC-298 cells were seeded in 60 μl/well 10% FCS-containing medium (DMEM […] glucose) on 96-well plates overnight. Cells were pre-incubated in quadruplicates with 5 μg/ml anti-Eag1 monoclonal antibodies, ImAb1 and ImAb3, diluted in FCS-containing medium with 40 mM KCl for 1 h at 37° C. in 5% CO2. Treatment of the cells with 40 mM KCl ensures an open conformation of the ion channel Eag1 and might accelerate binding of the monoclonal anti-EAG1 antibodies to its corresponding epitope. After 1 h incubation, supernatants were removed and replaced with 100 μl/well FCS-containing medium with 5 μg/ml anti-Eag1 antibodies, ImAb1 and ImAb3. Cells were then incubated at 37° C. in 5% CO2 for 7 days. In order to assess proliferation and cell viability 10 μl/well AlamarBlue™ (BIOSOURCE) was added and incubated at 37° C. in the dark. Absorbance was measured using a spectrofluorometer at 590 nm every 30 min.

[5] = system: IPC-298 melanoma cells; experiment: Soft agar assay IPC-298 with secondary immunotoxin Mab-ZAP; format: cell-based, human; details: 2.5 ng antibody with 100 pg Mab-ZAP, 10 days
Protocol: For comparison Mab-ZAP was pre-incubated with 2.5 ng control IgG. After 30 min pre-incubation, 2000 IPC-298 cells in OptiMEM with 20 mM KCl were added and further incubated at 37° C. for 30 min. IPC-298 cells, pre-incubated with immunotoxin-labelled anti-EAG1 antibody, were resuspended in 50 μl/well 0.25% Difco noble agar containing OptiMEM with 0.5% FCS and plated on 50 μl/well 0.5% agarose underlayer containing OptiMEM with 0.5% FCS in quadruplicates. Additionally, 50 μl/well 0.25% feeding agar containing OptiMEM with 0.5% FCS was plated. Colonies were allowed to form for 10 days and were stained with 50 μl MTT (1 mg/ml in PBS) for 1.5 hours. Wells were scanned using an Epson scanner and colonies were counted using the Scion Image software.

[6] = biological target: T2, Eag1 currents (Homo sapiens, UniProt O95259); experiment: Whole cell patch clamp, Eag1 currents in transfected HEK293 cells; format: cell-based; details: 300 nM, control antibody
T2 construct: expressed in transfected cells; host or cells: HEK293
T2 sequence (O95259 1-962 isoform O95259-2): T1 sequence (O95259 1-962 isoform O95259-2)
Protocol: To characterize effective affinity and specificity of the antibodies, block of Eag1 currents by ImAb3 in transfected HEK293 cells was tested in the whole cell configuration of the patch clamp technique. Currents were elicited by the depicted (FIG. 18a) pulse protocol (depolarization to +40 mV from a holding potential of −80 mV). Once a stable current level had been achieved, the antibody was applied to the bath chamber at a concentration of 300 nM, (approx 45 μg/ml). […] The antibody and the peptide were incubated (1:1 representing approximately 50 times molar excess of the peptide) at room temperature for 1 h and the mixture was used as described for the antibody alone.

B1: ImAb1: mouse monoclonal anti-Eag1 antibody; VL SEQ ID NO: 43, VH SEQ ID NO: 44; binds C-terminus of Eag1 (antibody, listed as Mus musculus)
heavy: MNFGFSLIFLVLVLKGVQCEVKLVESGGGLVKPGGSLKLSCAASGFTFSNYAMSWVRQTPEKRLEWVASISSDGDTYFPDNVKGRFTISRENAGNILFLQMSSLRSEDTAMYYCARGFMITFWGQGTLVTVSAAKTTPPSVYPLAPGCGDTTGSSVTLGCLVKGYFPESVTVTWNSGSLSSSVHTFPALLQSGLYTMSSSVTVPSSTWPSQTVTCSVAHPASSTTVD
light: MDMRAPAQFFGILLLWFPGIRCDIKMTQSPSSMYASLGERVTITCKASQDIKSYLSWYQQKPWKSPKILIYYATSLADGVPSRISGSGSGQDYSLTISSLESDDTATYYCLQHGESPYTFGGGTKLEIKRADAAPTVSIFPPSSEQLTSGGASVVCFLNNFYPKDINVKWKIDGSERQNGVLNSWTDQDSKDSTYSMSSTLTLTKDEYERHNSYTCEATHKTSTSPIVKSFNRNEC
B1 was tested. Which “binding region on Eag1 antigen” value [1] did it give?
Its value is “specifically binds to the C-terminus of the Eag1 antigen”.

What about the “cross-reactivity with Eag2” value [2] of the same molecule?
The value was “do not cross-react with Eag2”.

What about the “inhibition of Eag1 current” value [3] of the same molecule?
Its value is “No inhibition of Eag1 current was detected”.

What about the “inhibition of cell proliferation” value [4] of the same molecule?
The value was “inhibit human cancer cell growth”.

B2: ImAb4: mouse monoclonal anti-Eag1 antibody, IgG2b kappa; light chain SEQ ID NO: 2, heavy chain SEQ ID NO: 4 (antibody, listed as Mus musculus)
heavy: MRVLILLWLFTAFPGILSDVQLQESGPGLVKPSQSLSLTCTVTGYSITSDYAWNWIRQFPGNKLEWMGYISYSGSTIYNPSLKSRISITRDTSKNQFFLQLNSVTTEDTATYYCARFGNYGNTLNYWGQGTSVTVSSAKTTPPSVYPLAPGCGDTTGSSVTLGCLVKGYFPESVTVTWNSGSLSSSVHTFPALLQSGLYTMSSSVTVPSSTWPSQTVTCSVAHPASSTTVDKKLEPSGPISTINPCPPCKECHKCPAPNLEGGPSVFIFPPNIKDVLMISLTPKVTCVVVDVSEDDPDVQISWFVNNVEVHTAQTQTHREDYNSTIRVVSTLPIQHQDWMSGKEFKCKVNNKDLPSPIERTISKIKGLVRAPQVYILPPPAEQLSRKDVSLTCLVVGFNPGDISVEWTSNGHTEENYKDTAPVLDSDGSYFIYSKLNMKTSKWEKTDSFSCNVRHEGLKNYYLKKTISRSPGK
light: MKLPVRLLVLMFWIPASSSDVVMTQTPLSLPVSLGDQASISCRSSQSLVHSNGNTYLHWYLQKPGQSPKLLIYKVSNRFSGVPDRFSGSGSGTDFTLKISRVEAEDLGVYFCSQSTHVPPTFGGGTKLEIKRADAAPTVSIFPPSSEQLTSGGASVVCFLNNFYPKDINVKWKIDGSERQNGVLNSWTDQDSKDSTYSMSSTLTLTKDEYERHNSYTCEATHKTSTSPIVKSFNRNEC
What does the source list for B2?
inhibition of anchorage independent cell growth [5]: inhibits anchorage independent tumor cell growth; effect on current amplitudes [6]: showed no effect on current amplitudes
